Test results as given in US20180155451A1 (published 2018).

T1: FcγRIIb (human, UniProt P31994 43-217)
T1 construct: extracellular domain; also called FcgRIIb; 2b; not shown: His tag at the C terminus
T1 sequence (looked up): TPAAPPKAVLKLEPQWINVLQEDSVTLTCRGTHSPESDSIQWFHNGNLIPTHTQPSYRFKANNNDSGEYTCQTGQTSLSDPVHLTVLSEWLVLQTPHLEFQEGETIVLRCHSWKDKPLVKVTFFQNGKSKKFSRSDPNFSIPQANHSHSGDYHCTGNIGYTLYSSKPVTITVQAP

T2: FcγRIIb extracellular domain with C-terminal His tag (human, UniProt P31994 43-217)
T2 construct: extracellular domain; Soluble receptor expressed in FreeStyle293 cells, used as analyte in Biacore; also called FcgRIIb; 2b; not shown: His tag at the C terminus
T2 sequence (looked up): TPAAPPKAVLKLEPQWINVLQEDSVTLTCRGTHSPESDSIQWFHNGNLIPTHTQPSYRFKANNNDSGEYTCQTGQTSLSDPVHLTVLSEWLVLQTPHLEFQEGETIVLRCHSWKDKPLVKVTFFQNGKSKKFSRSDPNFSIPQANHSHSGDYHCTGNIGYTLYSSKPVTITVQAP


Columns and labels:
FcγRIa = target: T3, FcγRIa (human, UniProt P12314 16-292); assay: SPR (Biacore), antibody captured, FcγR as analyte; binding as % of GpH7-A5/GpH7-B3/GpL16-k0
T3 construct: extracellular domain; also called FcgRI; 1a; not shown: His tag at the C terminus
T3 sequence (P12314 16-292): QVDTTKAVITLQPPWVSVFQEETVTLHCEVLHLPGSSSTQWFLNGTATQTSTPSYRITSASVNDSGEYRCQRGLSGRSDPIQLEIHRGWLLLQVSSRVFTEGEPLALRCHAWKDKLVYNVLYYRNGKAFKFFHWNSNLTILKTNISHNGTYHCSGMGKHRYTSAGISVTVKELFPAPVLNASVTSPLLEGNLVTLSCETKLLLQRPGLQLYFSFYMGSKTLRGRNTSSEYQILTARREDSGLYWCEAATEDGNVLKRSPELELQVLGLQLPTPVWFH

FcγRIIb = target: T1, FcγRIIb; assay: as above
[1] = target: T4, FcγRIIIa extracellular domain with C-terminal His tag (human, UniProt P08637 17-208); assay: SPR; He/Con_3a divided by He/Con_2b (FcγRIIIa over FcγRIIb)
T4 construct: extracellular domain; also called FcgRIIIa; 3a; not shown: His tag at the C terminus
T4 sequence (P08637 17-208): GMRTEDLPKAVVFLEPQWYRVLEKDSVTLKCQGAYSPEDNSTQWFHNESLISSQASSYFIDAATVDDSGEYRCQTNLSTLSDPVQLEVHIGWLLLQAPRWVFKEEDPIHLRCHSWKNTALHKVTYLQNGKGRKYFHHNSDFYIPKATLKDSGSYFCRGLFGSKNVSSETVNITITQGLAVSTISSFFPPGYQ
Method: (§1) Analysis of interaction between objective antibody and the FcγR was carried out using Biacore T100 (GE Healthcare). HBS-EP+ (GE Healthcare) was used as the running buffer, and the measurement temperature was set to 25° C. Chips produced by immobilizing the antigen peptide by the amine coupling method to a Series S Sencor Chip CM5 (GE Healthcare), or alternatively, chips produced by allowing preliminarily biotinylated antigen peptides to interact with and immobilize onto a Series S Sensor Chip SA (certified) (GE Healthcare) were used. Antibodies of interest were captured onto an antigen peptide-immobilized chip, and allowed to interact to each FcγR diluted with running buffer. To regenerate and repeatedly use the chip, the antibodies captured on the chip were washed off by reacting 10 mM glycine-HCl, pH 1.5.
(§2) The FcγR-binding activity of each antibody was assessed primarily using as an indicator the FcγR-binding activity and dissociation constant for FcγR.

[2] = target: T2, FcγRIIb extracellular domain with …; assay: SPR (Biacore), antibody captured on antigen peptide chip, FcγR as analyte
Method: as §1, §2

[3] = target: T4, FcγRIIIa extracellular domain with …; assay: as above
Method: as §1, §2

Row | He/Con_1a (FcγRIa) | He/Con_2b (FcγRIIb) | He_3a/2b (IIIa/IIb) [1] [ratio] | He/Con_2b [2] | He/Con_3a [3] | Binder
1 | – | – | 0.24 | 199 relative binding (GpH7-A5/GpH7-B3/GpL16-k0 = 100) | 47.8 relative binding (GpH7-A5/GpH7-B3/GpL16-k0 = 100) | GpH7-A5/GpH7-B3 variant L328_09D/GpL16-k0 (antibody, human IgG1, kappa, Heterodimerized anti-glypican-3 IgG1; L328D (EU) only in the GpH7-B3 chain; also called He Ab) heavy 1: not shown heavy 2: not shown light: DIVMTQSPLSLPVTPGEPASISCQASESLVHSNRNTYLHWYLQKPGQSPQLLIYKVSNRFSGVPDRFSGSGSGTDFTLKISRVEAEDVGVYYCSQNTHVPPTFGQGTKVEIERTVAAPSVFIFPPSDEQLKSGTASVVCLLNNFYPREAKVQWKVDNALQSGNSQESVTEQDSKDSTYSLSSTLTLSKADYEKHKVYACEVTHQGLSSPVTKSFNRGEC
2 | – | – | 0.31 | 172 relative binding (GpH7-A5/GpH7-B3/GpL16-k0 = 100) | 53.4 relative binding (GpH7-A5/GpH7-B3/GpL16-k0 = 100) | GpH7-A5/GpH7-B3 variant L328_10E/GpL16-k0 (antibody, human IgG1, kappa, Heterodimerized anti-glypican-3 IgG1; L328E (EU) only in the GpH7-B3 chain; also called He Ab) heavy 1: not shown heavy 2: not shown light: DIVMTQSPLSLPVTPGEPASISCQASESLVHSNRNTYLHWYLQKPGQSPQLLIYKVSNRFSGVPDRFSGSGSGTDFTLKISRVEAEDVGVYYCSQNTHVPPTFGQGTKVEIERTVAAPSVFIFPPSDEQLKSGTASVVCLLNNFYPREAKVQWKVDNALQSGNSQESVTEQDSKDSTYSLSSTLTLSKADYEKHKVYACEVTHQGLSSPVTKSFNRGEC
3 | 94.5 % of control | 111 % of control | – | – | – | GpH7-A5/GpH7-B3 variant P331_20W/GpL16-k0 (antibody, human IgG1, kappa, heterodimerized IgG1; alteration in the GpH7-B3 H chain only; also called He Ab) heavy 1: not shown heavy 2: not shown light: DIVMTQSPLSLPVTPGEPASISCQASESLVHSNRNTYLHWYLQKPGQSPQLLIYKVSNRFSGVPDRFSGSGSGTDFTLKISRVEAEDVGVYYCSQNTHVPPTFGQGTKVEIERTVAAPSVFIFPPSDEQLKSGTASVVCLLNNFYPREAKVQWKVDNALQSGNSQESVTEQDSKDSTYSLSSTLTLSKADYEKHKVYACEVTHQGLSSPVTKSFNRGEC

The remaining lines, values behind:

Row | Binder | He/Con_1a (FcγRIa) | He/Con_2b (FcγRIIb) | He_3a/2b (IIIa/IIb) [1] [ratio] | He/Con_2b [2] | He/Con_3a [3]
4 | GpH7-A5/GpH7-B3 variant I332_15Y/GpL16-k0 (antibody, human IgG1, kappa, heterodimerized IgG1; alteration in the GpH7-B3 H chain only; also called He Ab) heavy 1: not shown heavy 2: not shown light: DIVMTQSPLSLPVTPGEPASISCQASESLVHSNRNTYLHWYLQKPGQSPQLLIYKVSNRFSGVPDRFSGSGSGTDFTLKISRVEAEDVGVYYCSQNTHVPPTFGQGTKVEIERTVAAPSVFIFPPSDEQLKSGTASVVCLLNNFYPREAKVQWKVDNALQSGNSQESVTEQDSKDSTYSLSSTLTLSKADYEKHKVYACEVTHQGLSSPVTKSFNRGEC | 88.8 % of control | 101 % of control | – | – | –
5 | GpH7-A5/GpH7-B3 variant I332_14T/GpL16-k0 (antibody, human IgG1, kappa, heterodimerized IgG1; alteration in the GpH7-B3 H chain only; also called He Ab) heavy 1: not shown heavy 2: not shown light: DIVMTQSPLSLPVTPGEPASISCQASESLVHSNRNTYLHWYLQKPGQSPQLLIYKVSNRFSGVPDRFSGSGSGTDFTLKISRVEAEDVGVYYCSQNTHVPPTFGQGTKVEIERTVAAPSVFIFPPSDEQLKSGTASVVCLLNNFYPREAKVQWKVDNALQSGNSQESVTEQDSKDSTYSLSSTLTLSKADYEKHKVYACEVTHQGLSSPVTKSFNRGEC | 91.8 % of control | 106 % of control | – | – | –
6 | GpH7-A5/GpH7-B3 variant I332_06M/GpL16-k0 (antibody, human IgG1, kappa, heterodimerized IgG1; alteration in the GpH7-B3 H chain only; also called He Ab) heavy 1: not shown heavy 2: not shown light: DIVMTQSPLSLPVTPGEPASISCQASESLVHSNRNTYLHWYLQKPGQSPQLLIYKVSNRFSGVPDRFSGSGSGTDFTLKISRVEAEDVGVYYCSQNTHVPPTFGQGTKVEIERTVAAPSVFIFPPSDEQLKSGTASVVCLLNNFYPREAKVQWKVDNALQSGNSQESVTEQDSKDSTYSLSSTLTLSKADYEKHKVYACEVTHQGLSSPVTKSFNRGEC | 92.3 % of control | 105 % of control | – | – | –
7 | GpH7-A5/GpH7-B3 variant I332_02A/GpL16-k0 (antibody, human IgG1, kappa, heterodimerized IgG1; alteration in the GpH7-B3 H chain only; also called He Ab) heavy 1: not shown heavy 2: not shown light: DIVMTQSPLSLPVTPGEPASISCQASESLVHSNRNTYLHWYLQKPGQSPQLLIYKVSNRFSGVPDRFSGSGSGTDFTLKISRVEAEDVGVYYCSQNTHVPPTFGQGTKVEIERTVAAPSVFIFPPSDEQLKSGTASVVCLLNNFYPREAKVQWKVDNALQSGNSQESVTEQDSKDSTYSLSSTLTLSKADYEKHKVYACEVTHQGLSSPVTKSFNRGEC | 88.3 % of control | 103 % of control | – | – | –
8 | GpH7-A5/GpH7-B3 variant I332_11K/GpL16-k0 (antibody, human IgG1, kappa, Heterodimerized anti-glypican-3 IgG1; I332K (EU) only in the GpH7-B3 chain; also called He Ab) heavy 1: not shown heavy 2: not shown light: DIVMTQSPLSLPVTPGEPASISCQASESLVHSNRNTYLHWYLQKPGQSPQLLIYKVSNRFSGVPDRFSGSGSGTDFTLKISRVEAEDVGVYYCSQNTHVPPTFGQGTKVEIERTVAAPSVFIFPPSDEQLKSGTASVVCLLNNFYPREAKVQWKVDNALQSGNSQESVTEQDSKDSTYSLSSTLTLSKADYEKHKVYACEVTHQGLSSPVTKSFNRGEC | – | – | 0.64 | 70.9 relative binding (GpH7-A5/GpH7-B3/GpL16-k0 = 100) | 45.1 relative binding (GpH7-A5/GpH7-B3/GpL16-k0 = 100)
